Ends that are not written are not given here. fluorescein = fluorescein conjugated to the primary amine of the Lys side chain through an MHS ester
Biological target: defatted HSA (human serum albumin) (human, UniProt P02768 25-609)
Experiment: native acrylamide gel shift, fluorescein-labeled peptide (25 pmol) with defatted HSA (100 pmol)

- binding result: binds
B1: fatty acid-conjugated faTraE peptide (peptide)
peptide: CHLDAHWK(fluorescein)G
modifications: not fully specified (residue 1)
notes: also called fatty acid-modified peptide; HOOC-(CH2)15-S-S-peptide

— patent US20100272644A1 (UNIVERSITY OF THE SCIENCES IN PHILADELPHIA, published 2010)
